Results published in the RNAGym collection of RNA variant scans (doi:10.1073/pnas.2313332121).

B1: TPR t1 (parent)
chain: GACCAAUCUGCCCUCAGAGCUCGAGAACAUCUUCGGAUGCAGAGGAGGCAGGCUUCGGUGGCGCGAUAGCGCCAACGUCCUCAACCUCCAAUGCAUCCCACCACAUGAUGAUGCCUGAAGAGCCUUGGUUUUUUG

Variants of: B1
Assay: polymerase ribozyme fitness, log enrichment relative to wild type (log ratio); higher = more active; in vitro selection for triplet polymerase activity
Summary of the method: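 The heterodimeric triplet polymerase ribozyme's subunits were each mutagenized into PCR-built libraries and transcribed. Every library was selected once, in triplicate, by annealing with a biotinylated primer, the partner subunit and triplets, incubating frozen at −7 °C, gel-excising extended constructs, capturing on streptavidin beads and running RT-PCR. Input and output libraries were Illumina-sequenced, with genotypes kept only at ≥10 input reads and ≥1 read per output. Fitness, from inverse-variance-weighted replicate averages, is the base-2 logarithm of genotype enrichment over wild-type enrichment.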

Variant | polymerase ribozyme fitness (log ratio)
C4U C11A A50C C85U U112C | -1.65
G36U U78G C97A | -0.315
A29G G44U | -2.04
C72G A119G | 1.3
G39A C80A C98U U133A | -6.34
C13G G42U C53A U87C C88U A121C C123A | -0.648
A6U G45U G52C G69C C72U G122A | -3.45
C104A C114U G127A U131A | -6.47
U54C G69U G127C | -0.892
G45U C53A C72U C89G | -1.72
A50C G63C C97U | -1.52
G51C C53G G61U | -2.56
U7G C53U C62G C101G C102A G120U G127A | -7.14
U9G G36C C56U C76U C85U A118U | -2.3
G57A C73G U87G U125A | -1.37
C15A A74G U81G U112C | -3.53
G47C C70U C89U | -4.18
G39A G48C | -1.23
C12G C70A C82U A105U U106A U109G | -4.43
A95C U109A U112C | -4.49
C49A A91G | -1.63

Variant | polymerase ribozyme fitness (log ratio)
A43G C115A G135C | -3.27
G44A G63A | -2.44
G42A G63C U133G | -3.43
A50C G63A U81A | -0.41
G44A G60C | 0.513
U87G G93A U112A U133A | 1.36
A37U A74C C102A C104U | -2.41
G77A A83U U87C C104U A105C | -5.02
C70G G135U | -3.49
G93U C115A | -2.49
U21A G44A C62U | -1.4
A43U U131A | -1.44
G71U A75U C98U | -2.02
U7G G35U G57U U87A A121G | -3.9
A5C U87G C101U | -0.776
G10A C22G G57C | -2.92
G17U C53G U96C U126C | -4.06
G61A C98A | -4.75
A27G A37G G57C U96G C115A | -5.8
G107A U109A A119G | -4.55
C28G A111U | -2.62

Variant | polymerase ribozyme fitness (log ratio)
A2U U87G | -2.24
A43C C64U | -1.64
G39U C62U G117U | -3.18
C8A C22G C31U G36C G61C | -6.63
U87G G113U | -3.33
A5U C31A G71A A84C C124A | -6.43
A5G A46U C56U C73G G122A C123A | -3
C56U U133A | -0.575
C28A G110C A119U | -1.42
C56U C114A G128A U133G | -4.81
C40U A74G G77U C123U | 1.22
C94G C102A | -3.54
G45C U126A | -2.8
C40G C88U G122A | -2.03
A90U U112G | -3.12
A43U C56G C64U | -2.1
C8A U21C G58C C82A U106G U132A | -1.35
G23C G69C C94G U96A G113U G120C | -7.12
U32G U33C A43U A91U C124U | -5.75
C20U G63A U96G | -3.22
C11U G71A U133G | -1.59

Variant | polymerase ribozyme fitness (log ratio)
C13U G135U | -0.441
C56A A118G | -0.557
G39U C101G | -3.29
C3A G52U C72A C89G C104A G113U A119U C123G | -5.02
U14A U125G | -3.25
A18G G63A C115A C123U | -6.7
C73A C86U C124A | 1.85
C22A U116C A121G U129C | -5.72
C64U C82U | -2.09
C3A C12U G42A G44C C79U C88A A118G G120A | -1.44
G45A A46U U55C C89U U131A | -0.91
C12G C98U A119G | 0.523
U9A C64U G117A | 0.77
C15G U32C C49U U87G C123A | -3.12
G47A A50G C115A | -1.8
C53A A83G A105C | -3.47
G42A G63U | -3.48
U7C C31U G61C G71U C72G G120U | -5.19
U54A U92G | -2.06
A5G C13A A46U G63A U133A | -2.84
G69U U92A U130A | -1.5
